Measured values from doi:10.1101/2024.07.05.601840v1.

What was measured:
Assay in all cases: purified protein
purified protein [1] = substrate: CCCCCCCC(=O)SCCNC(=O)CCNC(=O)[C@H](O)C(C)(C)COP(=O)(O)OP(=O)(O)OC[C@H]1O[C@@H](n2cnc3c(N)ncnc32)[C@H](O)[C@@H]1OP(=O)(O)O; conditions: 1 mM FcPF6, pH 6.5 HEPES-KOH, 20 mM KCl, 65°C
purified protein [2] = substrate: C/C=C/C(=O)SCCNC(=O)CCNC(=O)[C@H](O)C(C)(C)COP(=O)(O)OP(=O)(O)OC[C@H]1O[C@@H](n2cnc3c(N)ncnc32)[C@H](O)[C@@H]1OP(=O)(O)O
purified protein [3] = substrate: C[C@@H](O)CC(=O)SCCNC(=O)CCNC(=O)[C@H](O)C(C)(C)COP(=O)(O)OP(=O)(O)OC[C@H]1O[C@@H](n2cnc3c(N)ncnc32)[C@H](O)[C@@H]1OP(=O)(O)O; conditions: dehydration, pH 6.5 MES-KOH, 20 mM KCl, 65°C
purified protein [4] = substrate: CC(C)(COP(=O)(O)OP(=O)(O)OC[C@H]1O[C@@H](n2cnc3c(N)ncnc32)[C@H](O)[C@@H]1OP(=O)(O)O)[C@@H](O)C(=O)NCCC(=O)NCCS; type: biochemical, Sulfolobus acidocaldarius; conditions: thiolytic cleavage, 0.1 mM AcAcCoA, 20 mM MgCl2, pH 8, 23°C
purified protein [5] = substrate: CC(=O)CC(=O)SCCNC(=O)CCNC(=O)[C@H](O)C(C)(C)COP(=O)(O)OP(=O)(O)OC[C@H]1O[C@@H](n2cnc3c(N)ncnc32)[C@H](O)[C@@H]1OP(=O)(O)O; type: biochemical, Sulfolobus acidocaldarius; conditions: thiolytic cleavage, 0.2 mM CoA, 20 mM MgCl2, pH 8, 23°C
purified protein [6] = substrate: NC(=O)C1=CN([C@@H]2O[C@H](COP(=O)(O)OP(=O)(O)OC[C@H]3O[C@@H](n4cnc5c(N)ncnc54)[C@H](O)[C@@H]3O)[C@@H](O)[C@H]2O)C=CC1
purified protein [7] = substrate: C[C@H](O)CC(=O)SCCNC(=O)CCNC(=O)[C@H](O)C(C)(C)COP(=O)(O)OP(=O)(O)OC[C@H]1O[C@@H](n2cnc3c(N)ncnc32)[C@H](O)[C@@H]1OP(=O)(O)O; conditions: oxidative direction with NAD+
purified protein [8] = substrate: NC(=O)c1ccc[n+]([C@@H]2O[C@H](COP(=O)(O)OP(=O)(O)OC[C@H]3O[C@@H](n4cnc5c(N)ncnc54)[C@H](O)[C@@H]3O)[C@@H](O)[C@H]2O)c1; conditions: 0.4 mM crotonyl-CoA, pH 7 TRIS-HCl, 75°C, varied: cofactor
purified protein [9] = substrate: CC(=O)CC(=O)SCCNC(=O)CCNC(=O)[C@H](O)C(C)(C)COP(=O)(O)OP(=O)(O)OC[C@H]1O[C@@H](n2cnc3c(N)ncnc32)[C@H](O)[C@@H]1OP(=O)(O)O; conditions: 0.2 mM NADH, pH 7 TRIS-HCl, 35°C
[10] = hydration, pH 6.5 MES-KOH, 20 mM KCl, 65°C
[11] = 0.2 mM INT, pH 7.5 HEPES-NaOH, 100 mM NaCl
[12] = 0.2 mM NAD+, pH 7 TRIS-HCl, 75°C
[13] = 0.6 mM AcAcCoA, pH 7 TRIS-HCl, 35°C, varied: cofactor
[14] = 0.3 mM NADPH, pH 7.5 HEPES-NaOH, 10 mM KCl, 70°C

B1: ACAD (Saci_1123) (Sulfolobus acidocaldarius DSM 639) (protein)
chain: MVLPFKTMEAFNVEISEKHELFRRAVREFMERDVAPYVEKGEKEGQIPKEVLEKAKELGLYGVSVPEEYGGQGGDSLMTVIAQEEMARVWAALSTRVAVGGLFMTPILLFGSEEQRKKYVTPVAKGDKVAAFANTEPQAGSDVAGMQSTAKKVNGKYILNARKIFITNGGIADYYVVTARTSPPEPNARWKGISMFVVEREWKGVKVLNRIETMGLKASNTAELAFEDVEVPAENLVGEEGMGFKYAMSTFDASRVGVAGQALGVAQAALEKMTNYSVQRSAFGSPLLGFQMVQEKIAETLTEVNAARLVTYWAATLYNKGMTNEAIIASSMAKYFATEVAERAAIRAITVHGGYGVATSTGVERLLRDVEIMKIYEGANDIQKLVILKETARRLFGIKM
For B1, the Km (purified protein [1]) was 15.1 ± 4 µM and the kcat (purified protein [1]) was 21.234 s⁻¹.

B2: MaoC-HCD (Saci_1085) (Sulfolobus acidocaldarius DSM 639) (protein)
chain: MSEQGPFFEDFKVGQRFRSKVGRSLTDVDNIWFTLLTNNSNQIHFNRDYTEKYFSGEPFKGRLVVNGFLTLAIVAGLLVELTSQNGFMLGIENVKFMNPVFAGDTIYGEAEVIEARESKSRPGFGIVKIRTWGYNQRGEKIVEFDRVFMVRKRNSVWSGEKSTDKPQ
In the case of B2, the Km (purified protein [2]; [10]) is reported as 222 ± 64 µM, the kcat (purified protein [2]; [10]) is reported as 1.404 s⁻¹ and the Km (purified protein [3]) is reported as 399 ± 127 µM. For the same protein, the kcat (purified protein [3]) was 0.549 s⁻¹.

B3: KT/DUF35 (Saci_1121/1120 complex) (Sulfolobus acidocaldarius DSM 639) (protein)
chain: MRNVAIVGTGHSKFGVRNDVSMQELAWEAVKQALEEANLEQKDIQYFVVGNVGMWSAEELPAVVVGEYCDLTPKGTMRVEAACATGSAAIRDAYQAIKAGEIDVALVVGVEQMSQSPNPQVIELIGRAGNYFWEFENFGLTFPGYYALYASAYMAKYGMKEEDLGSVAVKNHYYGARNPYAQFQKEITMEEYLKSKPVAQPLKLLDSSPITDGAAALILASEEVARKITDSPVWIVSQGVASGTANLSRRTDFTGIEASYVAAKEAYKRAKIDFSDAWRYFDVADVHDCFTIAEIMAYEDLGFAKRGEGHLMARNGETYIGGKIPVNVDGGLKAKGHPIGATGVSMAVSITRQLLYRAHKGTQADIRNGMGITHNVGGTGHYAYITIYSTRRPSS
B3 was tested, and the Km (purified protein [4]) was 20 ± 4.1 µM, the kcat (purified protein [4]) was 3.467 s⁻¹ and the Km (purified protein [5]) was 65 ± 18.7 µM. The kcat (purified protein [5]) was 4.024 s⁻¹.

B4: ETF (Saci_0315) (Sulfolobus acidocaldarius DSM 639) (protein)
chain: MAELKIVVSIKQVPDADDLRIDPVTNNLVREGVPAVINPPDYHAIEEAIRLKERFGGKTMVLTMGPGQAEVALREALAMGIDEAYLISDRAMAGADTWATSYTVAKAVQRLGGADIILFGRRAVDGETEQVGPQTGKWLGIPVVAYVREIRSIENGKAVVVRTTEFEEEVIEVPLPAVFTILETANKPRQPDILSLIKAKTAKVTVWNKDDIKAEPTKIGLAGSPTKVIKVSPPPKTRKPEIIDGKKDPEKAAEWFLNKIYESLKEAESSLKEYVKPKAKVKVNSEIWVYIDHIGDRINKASLEILSEARRIADLMDTSVAGVVIGGESVKGIINEVYEYGADKVYFAETKGYDRYDNEVYTKALAKLAKKYKPEGIFFPGTRAARELASTSAIEIDTGLIADCTNFDVDDKGVLLATRPDFGGKEMSTIVCPRHRPVMVTTRAGVFMPLPRMPGRTGELIKEEIEDLYSRLKVLEYKNIEKRNILTEADIVVGVGRGIKSPENIKKFEEFATALGGVLGVSKPLADMGWYPKDRQIGQTGTTIRPKVYIALGVSGAVQHLVGILSSRKIGAINLDQSAPIFDNCDFGVVGDIFEIVPKMMELIKKKGE
B4 gave a Km (purified protein [6]; [11]) of 39 ± 12 µM and a kcat (purified protein [6]; [11]) of 0.784 s⁻¹.

B5: HCDH/ECH (Saci_1109) (Sulfolobus acidocaldarius DSM 639) (protein)
chain: MKVEDIKKILVIGAGTMGHGIAELAAIAGYQVYLSDVSQDILNSAMDKVKWSLTKLKERGTIKEDVETVLQRIRPVVGLDKTVSDADFSIEAITEKIDVKRQTFAKLDELLPPHAILATNTSSLPVSKIAEATKRPDKVVGMHYFNPPALMPLVEVMKGDKTSDETAKVTYELAKKLGKQPIMINKDIPGYVVNRILGGINIASCIVVEKKLADIKEVDAVARYKLGFPMGVFELLDYTGIDVAYYISKSREELGVKDDIPICSLIVEKFKNNELGVKSGKGFYTYPGPGKYVKPELPKELAEKLNPALIIAPAVNEAARLVRENIASKEDVDLGTVLGLGFQKGILKLADEVGIDNIVNSLSELKKLTGISSFDPDPLLTEMVSQGKVGMKSGSGFFEYGKIQQKTLKTLILRVEPPLAWIVLNRPERLNALSQELMGELDKVLDELEFNNDVRVVIITGNGRAFSAGADVTSFTTLRPIDVVRYRYMKNVIYKIQLYTKPVIAAINGFALGGGLELAMACDIRIASNLAQLGQPEINIGIIPGAGGTQRLPRLIGKGRAKLLIYTGDMIPAEEAYKMGLVDQVVPANKFEEEVRRVALKIAEKSPLSLLAAKLAVELGYEANIWTGQELESALFGLLFTTEDVKEGVRAFLERRKPQFKGE
In the case of B5, the Km (purified protein [2]; [12]) is reported as 24 ± 4 µM, the kcat (purified protein [2]; [12]) is reported as 20.56 s⁻¹ and the Km (purified protein [6]; [13]) is reported as 28 ± 7 µM. For the same protein, the kcat (purified protein [6]; [13]) was 8.441 s⁻¹, the Km (purified protein [7]) was 43 ± 2 µM and the kcat (purified protein [7]) was 58.672 s⁻¹. It also gave a Km (purified protein [8]) of 36 ± 9 µM and a Km (purified protein [9]) of 76 ± 8 µM.

B6: KT (Saci_1114) (Sulfolobus acidocaldarius DSM 639) (protein)
chain: MLQEVYLVDFARTPFTRFTRKEPQKDPFYNLRPEELAGIVINRLIEKNGINPREIEEIVTGCALQVGEQWSFGGRHEVFASRLPYTIPSMAVDRQCASSITTVAIGAMEVATGMADIVLAGGVEKMSKTPMFDNPHIEPNMAFLTDPKYAEYDLTTGYVMGLTAERLAEEAKISREEMDRWSLRSHQMATKAIQEGYFKDEIIPFETEVEGKKITLTTDQSVRPDTSLEKLSQLPPAFRPNGTITAGNSAPLNSGSAYVLLMSKNALKRYGLTPMAKIRSFGFAGVPPAVMGKGPVPSSKKALEKANLNVKDISLWEINEAFAVVVLNAIKELGLDESTVNKRGGAIAIGHPLGATGARIVGTLARQLLIEGKDYGVATLCVGGGQGGAIVVERV
Work on B6 yielded a Km (purified protein [4]) of 3.38 µM, a kcat (purified protein [4]) of 1.8 s⁻¹ and a Km (purified protein [5]) of 33 ± 10 µM. For the same protein, the kcat (purified protein [5]) was 1.2 s⁻¹.

B7: ECR (Saci_1115) (Sulfolobus acidocaldarius DSM 639) (protein)
chain: MKAVILPGFKQGYKIDKNVQEPKAGKSEVVVKLRKAALCYRDLLQIQGFYPRSKYPLILGHEMVGEIEEVGEGVEGFKKGDIVTSLLYVPDWTCDNCKMGEEIYCNNRQLYAQELDGFFAERILVKANSLVKVPPGVSDEGAVVVPCVAAMIYRGLKRANVKQGDIVLVTGAGGGVGIHALQVAKALGAKVVGVTSEESKAKIVGKFSDYVVVGNKFAEEVRKGFGEPSIVVDNVGGPTLDESMRSLKIGGKIVQVGNIDPSVNFSLRLGYLVLKNVELIGHAGATKKDIVDTLEMVRQNKITPVIGGEVSIEDFDKALDMLKDRKRHGKILIKP
For B7, the Km (purified protein [2]; [14]) was 96 ± 18 µM and the kcat (purified protein [2]; [14]) was 0.256 s⁻¹.
